Source: patent US5780265A, “Kunitz type plasma kallikrein inhibitors” (Genentech, Inc., priority 1995, dated 1998)
Where two headings read alike, the source gives them in different places. Bridges are numbered along the chain shown (N, C = ends). Where no end group is shown, it is not given here.

How the values were obtained:
[1] = molecular target: T1, Factor XIa (Homo sapiens, UniProt P03951); assay: Apparent equilibrium dissociation constant (Ki*) with FXIa; type: biochemical; settings: at least 3 independent measurements
T1 construct: purchased Haematologic Technologies Inc. (Essex Jct., Vt.)
T1 sequence (P03951 388-625 limits assumed): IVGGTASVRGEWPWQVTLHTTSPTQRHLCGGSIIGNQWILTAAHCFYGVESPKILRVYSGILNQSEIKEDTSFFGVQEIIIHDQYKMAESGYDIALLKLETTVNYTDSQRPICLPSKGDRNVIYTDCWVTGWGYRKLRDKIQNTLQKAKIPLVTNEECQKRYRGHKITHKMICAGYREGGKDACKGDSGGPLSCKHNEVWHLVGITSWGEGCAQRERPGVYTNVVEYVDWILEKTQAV
T1 sequence (P03951 19-387 limits assumed): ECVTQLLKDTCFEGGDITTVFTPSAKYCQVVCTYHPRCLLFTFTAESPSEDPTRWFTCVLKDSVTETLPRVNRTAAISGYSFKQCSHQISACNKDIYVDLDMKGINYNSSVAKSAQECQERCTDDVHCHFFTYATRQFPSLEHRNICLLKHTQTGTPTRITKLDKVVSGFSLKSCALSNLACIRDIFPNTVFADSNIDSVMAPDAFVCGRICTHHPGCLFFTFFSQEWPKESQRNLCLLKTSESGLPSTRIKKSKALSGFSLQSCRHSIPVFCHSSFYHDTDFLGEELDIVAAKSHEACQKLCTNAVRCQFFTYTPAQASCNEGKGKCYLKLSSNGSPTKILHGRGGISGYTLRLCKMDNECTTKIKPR
Method: (§3) Serine proteases (1 to 20 nM) were assayed in the presence of 100 nM inhibitor. […] The degree to which FXIa was inhibited by selected inhibitors including the consensus mutants was further investigated by measuring the Ki *.

[2] = molecular target: T2, plasma kallikrein (Homo sapiens, UniProt P03952); assay: Apparent equilibrium dissociation constant (Ki*) with plasma kallikrein; type: biochemical
T2 construct: Human plasma kallikrein and Factor XIIa were purchased; purchased Enzyme Research Laboratories, Inc. (South Bend, Ind.)
T2 sequence (P03952 391-638 limits assumed): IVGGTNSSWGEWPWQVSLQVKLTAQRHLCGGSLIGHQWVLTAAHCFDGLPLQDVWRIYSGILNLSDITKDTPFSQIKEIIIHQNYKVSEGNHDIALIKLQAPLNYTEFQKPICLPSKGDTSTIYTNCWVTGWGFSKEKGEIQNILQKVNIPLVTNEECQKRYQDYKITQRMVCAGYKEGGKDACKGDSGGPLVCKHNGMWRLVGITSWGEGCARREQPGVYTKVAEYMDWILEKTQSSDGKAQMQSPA
T2 sequence (P03952 20-390 limits assumed): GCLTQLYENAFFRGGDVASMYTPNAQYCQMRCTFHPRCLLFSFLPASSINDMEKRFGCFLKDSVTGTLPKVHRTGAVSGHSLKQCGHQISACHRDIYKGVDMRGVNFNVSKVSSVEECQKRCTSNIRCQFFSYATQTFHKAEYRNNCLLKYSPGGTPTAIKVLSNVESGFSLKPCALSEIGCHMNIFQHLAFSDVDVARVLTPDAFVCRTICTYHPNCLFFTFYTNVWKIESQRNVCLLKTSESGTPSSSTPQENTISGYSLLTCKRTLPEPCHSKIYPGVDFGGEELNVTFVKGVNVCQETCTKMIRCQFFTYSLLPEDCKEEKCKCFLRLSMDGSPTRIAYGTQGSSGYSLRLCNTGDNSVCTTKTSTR
Method: Reactions (200 μL) were carried out in microtiter plates and the rate substrate (0.7 mM S2302) was monitored at 405 nm following a 1.5 h incubation. Plots of the fractional rate versus inhibitor concentration were fit by nonlinear regression analysis to Equation 1 to determine apparent equilibrium dissociation constants (Ki *):

[3] = molecular target: T3, Factor Xa (Homo sapiens, UniProt P00742); assay: Specificity assay, Factor Xa; type: biochemical; settings: 100 nM inhibitor; FXa 2.5 nM, 0.7 mM Spectrozyme fXa
T3 construct: purchased Haematologic Technologies Inc. (Essex Jct., Vt.)
T3 sequence (P00742 235-488 limits assumed): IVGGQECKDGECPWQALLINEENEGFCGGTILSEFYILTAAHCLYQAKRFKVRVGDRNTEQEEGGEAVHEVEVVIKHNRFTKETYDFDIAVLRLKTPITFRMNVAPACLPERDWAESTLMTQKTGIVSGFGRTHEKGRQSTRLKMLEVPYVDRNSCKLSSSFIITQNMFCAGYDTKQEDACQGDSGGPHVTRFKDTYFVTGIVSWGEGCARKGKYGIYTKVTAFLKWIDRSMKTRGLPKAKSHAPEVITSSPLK
T3 sequence (P00742 41-179 limits assumed): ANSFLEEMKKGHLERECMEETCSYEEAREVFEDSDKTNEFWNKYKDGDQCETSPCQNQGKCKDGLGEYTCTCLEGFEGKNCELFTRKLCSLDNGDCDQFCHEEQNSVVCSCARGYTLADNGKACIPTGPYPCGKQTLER
Method: (§4) Aliquots (30 μL) of various inhibitors diluted to 500 nM were incubated with each protease (100 μL) in the appropriate buffer. After incubation of the substrate/inhibitor mixes at room temperature for 2 h, the appropriate substrate (20 μL) was added, and the absorbance at 405 nm was monitored. […] For this experiment, the concentrations of thrombin, TF-FVIIa, FXa, FXIa, FXIIa, and plasmin are approximate and are determined based upon the manufacturers' specifications.
(§5) Serine proteases (1 to 20 nM) were assayed in the presence of 100 nM inhibitor.

[4] = molecular target: T4, TF-FVIIa (tissue factor-Factor VIIa) (Homo sapiens, UniProt P08709); assay: Specificity assay, TF-FVIIa; type: biochemical; settings: 100 nM inhibitor; TF 77 nM-FVIIa 14 nM, 0.7 mM S2366
T4 construct: purchased Haematologic Technologies Inc. (FVIIa); TF made in house; host or cells: E. coli (TF 1-243)
T4 sequence (P08709 213-466 limits assumed): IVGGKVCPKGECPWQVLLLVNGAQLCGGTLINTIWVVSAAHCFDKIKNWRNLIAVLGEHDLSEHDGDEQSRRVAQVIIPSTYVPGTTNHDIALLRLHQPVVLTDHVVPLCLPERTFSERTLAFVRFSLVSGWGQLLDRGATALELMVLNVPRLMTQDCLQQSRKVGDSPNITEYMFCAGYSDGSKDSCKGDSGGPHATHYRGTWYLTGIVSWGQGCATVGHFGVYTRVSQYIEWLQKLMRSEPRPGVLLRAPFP
T4 sequence (P08709 61-212 limits assumed): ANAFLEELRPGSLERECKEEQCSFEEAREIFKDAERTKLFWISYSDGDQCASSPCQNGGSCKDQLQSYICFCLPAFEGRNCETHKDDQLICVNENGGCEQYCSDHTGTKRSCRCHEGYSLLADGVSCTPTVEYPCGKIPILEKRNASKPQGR
T4 sequence (P13726 33-275 partner limits assumed): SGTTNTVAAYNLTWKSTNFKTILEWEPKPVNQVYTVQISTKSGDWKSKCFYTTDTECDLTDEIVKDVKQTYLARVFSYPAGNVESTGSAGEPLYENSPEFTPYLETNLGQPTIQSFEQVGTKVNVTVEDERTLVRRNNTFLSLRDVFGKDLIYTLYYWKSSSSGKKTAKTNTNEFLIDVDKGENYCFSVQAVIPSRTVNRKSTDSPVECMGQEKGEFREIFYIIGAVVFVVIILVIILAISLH
Method: (§6) Aliquots (30 μL) of various inhibitors diluted to 500 nM were incubated with each protease (100 μL) in the appropriate buffer. After incubation of the substrate/inhibitor mixes at room temperature for 2 h, the appropriate substrate (20 μL) was added, and the absorbance at 405 nm was monitored. […] The FXIa assay also contained 1 mg/mL BSA. The concentration of FXIa throughout refers to the concentration of active sites. For this experiment, the concentrations of thrombin, TF-FVIIa, FXa, FXIa, FXIIa, and plasmin are approximate and are determined based upon the manufacturers' specifications.
as §3

[5] = molecular target: T2, plasma kallikrein; assay: Specificity assay, plasma kallikrein; type: biochemical; settings: 100 nM inhibitor; plasma kallikrein 3.5 nM, 0.7 mM S2302; 2 h room temperature
Method: as §6, §3

[6] = molecular target: T1, Factor XIa; assay: Specificity assay, Factor XIa; type: biochemical; settings: 100 nM inhibitor; FXIa […], 0.7 mM S2366, 1 mg/mL BSA
Method: as §6, §3

[7] = molecular target: T5, activated protein C (Homo sapiens, UniProt P04070); assay: Specificity assay, activated protein C; type: biochemical; settings: 100 nM inhibitor; activated protein C 7.6 nM, 0.7 mM S2366
T5 construct: purchased Haematologic Technologies Inc. (Essex Jct., Vt.)
T5 sequence (P04070 212-461 limits assumed): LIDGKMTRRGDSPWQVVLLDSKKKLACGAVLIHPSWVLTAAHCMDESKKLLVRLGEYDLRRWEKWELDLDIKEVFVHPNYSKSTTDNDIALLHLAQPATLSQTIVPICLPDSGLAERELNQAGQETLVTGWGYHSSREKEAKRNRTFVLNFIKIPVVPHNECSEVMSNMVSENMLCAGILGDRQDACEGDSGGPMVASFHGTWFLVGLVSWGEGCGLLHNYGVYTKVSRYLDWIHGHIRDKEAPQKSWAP
T5 sequence (P04070 43-197 limits assumed): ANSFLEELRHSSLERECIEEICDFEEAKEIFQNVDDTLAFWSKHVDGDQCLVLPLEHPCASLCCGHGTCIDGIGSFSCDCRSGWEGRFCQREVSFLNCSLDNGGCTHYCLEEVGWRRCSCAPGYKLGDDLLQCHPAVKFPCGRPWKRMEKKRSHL
Method: as §6, §3

[8] = molecular target: T6, thrombin (Homo sapiens, UniProt P00734); assay: Specificity assay, thrombin; type: biochemical; settings: 100 nM inhibitor; thrombin 6.2 nM, 0.7 mM S2366
T6 construct: purchased Haematologic Technologies Inc. (Essex Jct., Vt.)
Method: as §4, §5

[9] = molecular target: T7, Factor XIIa (Homo sapiens, UniProt P00748); assay: Specificity assay, Factor XIIa; type: biochemical; settings: 100 nM inhibitor; 0.7 mM S2302
T7 construct: purchased Enzyme Research Laboratories, Inc. (South Bend, Ind.)
T7 sequence (P00748 373-615 limits assumed): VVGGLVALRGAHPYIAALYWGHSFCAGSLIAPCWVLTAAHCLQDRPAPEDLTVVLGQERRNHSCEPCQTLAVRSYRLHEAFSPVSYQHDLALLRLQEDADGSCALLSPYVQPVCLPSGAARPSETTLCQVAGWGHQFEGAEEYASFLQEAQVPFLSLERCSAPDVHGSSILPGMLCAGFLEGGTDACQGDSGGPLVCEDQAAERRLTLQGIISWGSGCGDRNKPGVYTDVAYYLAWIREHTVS
T7 sequence (P00748 20-372 limits assumed): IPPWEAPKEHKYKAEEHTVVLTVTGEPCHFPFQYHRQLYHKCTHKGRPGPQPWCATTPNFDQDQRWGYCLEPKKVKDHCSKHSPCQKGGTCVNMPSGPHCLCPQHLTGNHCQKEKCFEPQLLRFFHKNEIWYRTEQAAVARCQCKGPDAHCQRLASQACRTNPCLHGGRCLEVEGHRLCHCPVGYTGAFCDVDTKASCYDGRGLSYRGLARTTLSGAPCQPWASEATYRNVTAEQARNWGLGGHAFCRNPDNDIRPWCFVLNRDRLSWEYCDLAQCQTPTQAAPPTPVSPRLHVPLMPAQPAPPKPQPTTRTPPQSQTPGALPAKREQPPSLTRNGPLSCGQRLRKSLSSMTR
Method: as §4, §5

[10] = molecular target: T8, plasmin (Homo sapiens, UniProt P00747); assay: Specificity assay, plasmin; type: biochemical; settings: 100 nM inhibitor; for fraction of remaining proteolytic activity, plasmin: plasmin 32 nM, 0.7 mM S2251
T8 construct: Human plasmin, S-2302, S-2251, and S-2366 were purchased from Kabi Vitrum (Sweden); purchased Kabi Vitrum (Sweden)
T8 sequence (P00747 581-810 limits assumed): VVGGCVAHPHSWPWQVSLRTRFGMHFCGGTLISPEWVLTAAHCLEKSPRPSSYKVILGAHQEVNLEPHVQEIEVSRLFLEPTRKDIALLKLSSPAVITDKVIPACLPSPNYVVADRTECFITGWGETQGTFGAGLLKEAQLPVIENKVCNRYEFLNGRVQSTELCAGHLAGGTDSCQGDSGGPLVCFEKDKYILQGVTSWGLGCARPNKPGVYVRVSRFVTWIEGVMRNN
T8 sequence (P00747 97-580 limits assumed): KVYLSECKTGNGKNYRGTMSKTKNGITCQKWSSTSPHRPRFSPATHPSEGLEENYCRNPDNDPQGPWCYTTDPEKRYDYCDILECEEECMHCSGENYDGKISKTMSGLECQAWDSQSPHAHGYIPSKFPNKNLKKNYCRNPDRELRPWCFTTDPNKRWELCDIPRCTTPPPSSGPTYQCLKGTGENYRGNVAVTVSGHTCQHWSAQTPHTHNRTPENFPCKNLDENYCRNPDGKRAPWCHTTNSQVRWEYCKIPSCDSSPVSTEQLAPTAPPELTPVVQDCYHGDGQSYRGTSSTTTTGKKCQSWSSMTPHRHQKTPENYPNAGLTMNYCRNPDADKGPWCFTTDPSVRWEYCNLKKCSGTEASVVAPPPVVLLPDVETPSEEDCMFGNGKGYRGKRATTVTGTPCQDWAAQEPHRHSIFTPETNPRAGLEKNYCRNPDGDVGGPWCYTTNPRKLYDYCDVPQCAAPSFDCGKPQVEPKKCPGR
Method: as §6, §3

[11] = molecular target: plasma kallikrein; settings: Seymour et al. 1994; read-out: Ki for plasma kallikrein (literature); cited from earlier work
[12] = test system: extrinsic coagulation pathway; assay: Prothrombin time (PT) clotting assay, tissue factor initiated; type: biochemical; settings: normal human plasma, TF initiated
Method: (§1) FIG. 5A and FIG. 5B. […] The uninhibited clotting times were 33.6 sec and 14 sec for the APTT and PT, respectively
(§2) Clotting times for normal human plasma were performed using an MLA Electra 800 Coagulometer (Medical Laboratory Automation, Inc. Pleasantville, N.Y.) and Dade reagents (Baxter Health Care Corp., Miami Fla.). The clotting time was determined by optical assessment.

[13] = test system: intrinsic coagulation pathway; assay: Activated partial thromboplastin time (APTT) clotting assay in normal human plasma; type: biochemical; settings: 1 μM inhibitor
Method: as §1, §2
For the activated partial thromboplastin time (APTT) assays, the activation time was set at 120 sec and acquisition time at 300 to 600 sec depending on the expected outcome of the assay. Citrated normal human plasma and inhibitor were incubated together. The sample (plasma and inhibitor) and activator (Actin FS) were automatically pipetted and incubated is together for 2 min at 37° C., then CaCl2 was added and clotting time determined by means of optical assessment. The total incubation time of inhibitor with plasma was ca. 3 min before addition of activator, and 5 min before addition of CaCl2.

[14] = 25° C., pH 7.5, 0.7 mM S2302, 1.5 h incubation, at least 3 independent measurements, read-out: Plasma Kallikrein Ki*

| Compound | Ki [1] [nM] | Ki [2, 14] [nM] | fraction of remaining proteolytic activity, Factor Xa [3] | fraction of remaining proteolytic activity, TF · Factor VIIa [4] | fraction of remaining proteolytic activity, plasma kallikrein [5] | fraction of remaining proteolytic activity, Factor XIa [6] | fraction of remaining proteolytic activity, activated protein C [7] | fraction of remaining proteolytic activity, thrombin [8] | fraction of remaining proteolytic activity, Factor XIIa [9] | fraction of remaining proteolytic activity, plasmin [10] | also measured |
| --- | --- | --- | --- | --- | --- | --- | --- | --- | --- | --- | --- |
| VREVCSEQAEEGHCRAAHPRWYFDVTEGKCAPFFYGGCGGNRNNFDTEEYCAAVCGSA (disulfide 5-55, 14-38, 30-51) [KALI-E] | 4.5 ± 4 | 0.103 ± 0.054 | – | – | – | – | – | – | – | – | – |
| KALI-30: APPI Kunitz domain mutant, R1 EGHCRAAILR2 FR3 (SEQ ID NO: 5) (VREVCSEQAEEGHCRAAILRWYFDVTEGKCAPFFYGGCGGNRNNFDTEEYCAAVCGSA) | – | – | 0.68 | 1.02 | 0.00 | 0.00 | 0.81 | 1.00 | 0.92 | 0.53 | – |
| KALI-46: APPI Kunitz domain mutant, R1 EGRCRASILR2 FR3 (SEQ ID NO: 33) (VREVCSEQAEEGRCRASILRWYFDVTEGKCAPFFYGGCGGNRNNFDTEEYCAAVCGSA) | – | – | 1.02 | 0.86 | 0.00 | 0.00 | 0.83 | 0.99 | 0.97 | 0.64 | – |
| VREVCSEQAEPGHCRAAHPRWYFDVTEGKCAPFVYGGCGGNRNNFDTEEYCAAVCGSA (disulfide 5-55, 14-38, 30-51) [KALI-PV] | 4.1 ± 5.2 | 0.166 ± 0.07 | – | – | – | – | – | – | – | – | – |
| KALI-48: APPI Kunitz domain mutant, R1 TGHCRAAIPR2 FR3 (SEQ ID NO: 2) (VREVCSEQAETGHCRAAIPRWYFDVTEGKCAPFFYGGCGGNRNNFDTEEYCAAVCGSA) | – | – | 0.55 | 0.95 | 0.00 | 0.01 | 0.92 | 0.99 | 0.99 | 0.23 | inhibition of plasmin [10]: > 60% |
| KALI-13: APPI Kunitz domain mutant, R1 SGHCRAAIPR2 FR3 (SEQ ID NO: 1) (VREVCSEQAESGHCRAAIPRWYFDVTEGKCAPFFYGGCGGNRNNFDTEEYCAAVCGSA) | – | – | 0.97 | 0.96 | 0.00 | 0.01 | 0.90 | 0.96 | 1.00 | 0.65 | – |
| VREVCSEQAEDGHCRAAHPRWYFDVTEGKCAPFFYGGCGGNRNNFDTEEYCAAVCGSA (disulfide 5-55, 14-38, 30-51) [KALI-D] | 5.7 ± 7 | 0.025 ± 0.022 | – | – | – | – | – | – | – | – | – |
| ecotin: a 142 residue protein from E. coli | – | – | – | – | – | – | – | – | – | – | Ki [11]: ~0.16 nM |
| CC(C)[C@H](N)C(=O)N[C@@H](CCCNC(=N)N)C(=O)N[C@@H](CCC(=O)O)C(=O)N[C@H](C(=O)N[C@H]1CSSC[C@@H](C(=O)NCC(=O)N[C@@H](CO)C(=O)N[C@@H](C)C(=O)O)NC(=O)[C@H](C(C)C)NC(=O)[C@H](C)NC(=O)[C@H](C)NC(=O)[C@@H]2CSSC[C@@H]3NC(=O)[C@H](CCCCN)NC(=O)CNC(=O)[C@H](CCC(=O)O)NC(=O)[C@H]([C@@H](C)O)NC(=O)[C@H](C(C)C)NC(=O)[C@H](CC(=O)O)NC(=O)[C@H](Cc4ccccc4)NC(=O)[C@H](Cc4ccc(O)cc4)NC(=O)[C@H](Cc4c[nH]c5ccccc45)NC(=O)[C@H](CCCNC(=N)N)NC(=O)[C@@H]4CCCN4C(=O)[C@H](Cc4c[nH]cn4)NC(=O)[C@H](C)NC(=O)[C@H](C)NC(=O)[C@H](CCCNC(=N)N)NC(=O)[C@H](CSSC[C@H](NC(=O)CNC(=O)CNC(=O)[C@H](Cc4ccc(O)cc4)NC(=O)[C@H](C(C)C)NC(=O)[C@H](Cc4ccccc4)NC(=O)[C@@H]4CCCN4C(=O)[C@H](C)NC3=O)C(=O)NCC(=O)NCC(=O)N[C@@H](CC(N)=O)C(=O)N[C@@H](CCCNC(=N)N)C(=O)N[C@@H](CC(N)=O)C(=O)N[C@@H](CC(N)=O)C(=O)N[C@@H](Cc3ccccc3)C(=O)N[C@@H](CC(=O)O)C(=O)N[C@@H]([C@@H](C)O)C(=O)N[C@@H](CCC(=O)O)C(=O)N[C@@H](CCC(=O)O)C(=O)N[C@@H](Cc3ccc(O)cc3)C(=O)N2)NC(=O)[C@H](Cc2c[nH]cn2)NC(=O)CNC(=O)[C@H](CCC(=O)O)NC(=O)[C@H](CCC(=O)O)NC(=O)[C@H](C)NC(=O)[C@H](CCC(N)=O)NC(=O)[C@H](CCC(=O)O)NC(=O)[C@H](CO)NC1=O)C(C)C [KALI-EV] | – | 0.117 ± 0.059 | – | – | – | – | – | – | – | – | – |
| VREVCSEQAEDGHCRAAHPRWYFDVTEGKCAPFVYGGCGGNRNNFDTEEYCAAVCGSA (disulfide 5-55, 14-38, 30-51) [KALI-DV] | 1.3 ± 1.4 | 0.043 ± 0.034 | – | – | – | – | – | – | – | – | – |
| VREVCSEQAEPGHCRAAHPRWYFDVTEGKCAPFYYGGCGGNRNNFDTEEYCAAVCGSA (disulfide 5-55, 14-38, 30-51) [KALI-PY] | 11.7 ± 11.9 | 0.136 ± 0.081 | – | – | – | – | – | – | – | – | – |
| VREVCSEQAEDGHCRAAHPRWYFDVTEGKCAPFYYGGCGGNRNNFDTEEYCAAVCGSA (disulfide 5-55, 14-38, 30-51) [KALI-DY] | 8.2 ± 3.5 | – | – | – | – | – | – | – | – | – | Ki ([2]; read-out: Ki* for plasma kallikrein): 0.015 ± 0.014 nM |
| VREVCSEQAEEGHCRAAHPRWYFDVTEGKCAPFYYGGCGGNRNNFDTEEYCAAVCGSA (disulfide 5-55, 14-38, 30-51) [KALI-EY] | 7.3 ± 5.5 | 0.98 ± 0.075 | – | – | – | – | – | – | – | – | – |
| KALI-8: APPI Kunitz domain mutant, R1 LGHCRAAIPR2 FR3 (SEQ ID NO: 3) (VREVCSEQAELGHCRAAIPRWYFDVTEGKCAPFFYGGCGGNRNNFDTEEYCAAVCGSA) | – | – | 1.13 | 0.94 | 0.00 | 0.00 | 0.89 | 0.99 | 1.00 | 0.83 | – |
| APPI: 58 amino acid Kunitz domain from human Alzheimer's disease amyloid β-protein precursor, residues 287-344; here Met52 replaced with Ala [reference compound] | 2.7 ± 1.4 | – | – | 0.60 | 0.81 | 0.03 | – | – | – | – | prolongation of clotting time in PT assay (in words) [12]: neither KALI-DY, BPTI, nor APPI appreciably prolonged; fold prolongation of clotting time, APTT [13]: 2.8 fold |
| VREVCSEQAEPGHCRAAHPRWYFDVTEGKCAPFFYGGCGGNRNNFDTEEYCAAVCGSA (disulfide 5-55, 14-38, 30-51) [KALI-P] | 13.8 ± 17.4 | 0.2 ± 0.099 | – | – | – | – | – | – | – | – | – |
